Holding throughout (assay): purified protein
Substrate in data set [1]: COc1ccccc1O
The conditions noted are these: citrate-phosphate buffer, optimum pH 3.5, 25 °C stated for activity assay.

Substrate in data set [2]: CCn1c(=NN=c2sc3cc(S(=O)(=O)O)ccc3n2CC)sc2cc(S(=O)(=O)O)ccc21
The data set is classed as biochemical, Pleurotus ostreatus. The following applies: citrate-phosphate buffer, optimum pH 3.0, 25 °C stated for activity assay.

Substrate in data set [3]: COc1cccc(OC)c1O
The data set is classed as biochemical, Pleurotus ostreatus. The conditions noted are these: citrate-phosphate buffer, optimum pH 3.0, 25 °C stated for activity assay.

These results are taken from paper PMC7232166, “Expression of Pleurotus ostreatus Laccase Gene in Pichia pastoris and Its Degradation of Corn Stover Lignin” (Microorganisms, 2020).

B1: Recombinant laccase X33-Lac-2 (Pleurotus ostreatus) (protein)
chain: AIGPAGNMYIVNEDVSPDGFARSAVVARSVPATDPTPATASIPGVLVQGNKGDNFQLNVVNQLSDTTMLKTTSIHWHGFFQAGSSWADGPAFVTQCPVASGDSFLYNFNVPDQAGTFWYHSHLSTQYCDGLRGPFVVYDPSDPHLSLYDIDNADTVITLEDWYHIVAPQNAAIPTPDSTLINGKGRYAGGPTSPLAIINVESNKRYRFRLVSMSCDPNFTFSIDGHSLLVIEADAVNIVPITVDSIQIFAGQRYSFVLTANQAVDNYWIRANPNLGSTGFVGGINSAILRYAGATEDDPTTTSSTSTPLLETNLVPLENPGAPGPPVPGGADININLAMAFDFTTFELTINGVPFLPPTAPVLLQILSGASTAASLLPSGSIYELEANKVVEISMPALAVGGPHPFHLHGHTFDVIRSAGSTTYNFDTPARRDVVNTGTGANDNVTIRFVTDNPGPWFLHCHIDWHLEIGLAVVFAEDVTSISAPPAAWDDLCPIYNALSDNDKGGIVPS
notes: about 57 kDa on SDS-PAGE
On to B1, for which the figures for the Km in “purified protein [1]”, in the data set “purified protein [2]” and in “purified protein [3]” were 302.4 ± 26.0 µM, 13.6 ± 2.9 µM and 79.2 ± 18.3 µM, respectively. Also, the turnover number (kcat) (usually the maximal rate divided by the concentration of active sites) in “purified protein [2]” amounted to 311 ± 21 s⁻¹; in the data set “purified protein [3]”, 19.8 ± 1.1 s⁻¹. The results for the kcat/Km in “purified protein [2]” and in the data set “purified protein [3]” were 2.28e+07 M⁻¹ s⁻¹ and 250000 M⁻¹ s⁻¹, respectively.
